The values below come from patent US11584938B2, “Plant EPSPS mutant containing L195P and S247G mutations and encoding gene and use thereof” (GEVOTO LLC, priority 2017, dated 2023).

This test relates to transgenic rice plants. The test can be described thus: glyphosate resistance of the EPSPS mutant in transgenic rice plants sprayed with Roundup 41% ammonium glyphosate. The test is classed as in vivo, rice (Nipponbare). The gist of the method:
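EPSPS mutant genes were cloned into pGVP1 and introduced into Nipponbare rice embryo-derived calluses via Agrobacterium EHA105 (OD 0.2, 10 min infection, 2–3 days co-culture at 25 °C in the dark). Calluses went through recovery, two 14-day screening rounds at 30 °C, two differentiation rounds and rooting to regenerate transgenic plants.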

Where [1] appears, read: 1× dosage 1060 g/hectare glyphosate sprayed, recorded on 10th day.
The mark [2] stands for this setting: 2× dosage 2120 g/hectare sprayed to plants surviving 1×, recorded 10 days later.
Where [3] appears, read: 5× dosage 5300 g/hectare sprayed to plants surviving 2×, recorded 10 days later.
Setting [4] is: 20× dosage 21200 g/hectare sprayed to plants surviving 5×, recorded 10 days later.

B1: T2: wheat EPSPS mutant, SEQ ID NO: 18, merely containing the mutation P118(101)S; control (protein)
chain: MATSVAAPAAPAGAEEVVLQPIREISGAVQLPGSKSLSNRILLLSALSEGTTVVDNLLNSEDVHYMLEALEALGLSVEADKVAKRAVVVGCGGRFPVEKDAKEEVKLFLGNAGTAMRSLTAAVVAAGGNATYVLDGVPRMRERPIGDLVVGLQQLGADVDCFLGTNCPPVRINGKGGLPGGKVKLSGSISSQYLSSLLMAAPLALEDVEIEIIDKLISVPYVEMTLKLMEHFGVTAEHSDSWDRFYIKGGQKYKSPGNAYVEGDASSASYFLAGAAITGGTVTVEGCGTTSLQGDVKFAEVLEMMGAKVTWTDTSVTVTGPPRQPFGRKHLKAVDVNMNKMPDVAMTLAVVALFADGPTAIRDVASWRVKETERMVAIRTELTKLGATVEEGPDYCIITPPEKLNITAIDTYDDHRMAMAFSLAACAEVPVTIRDPGCTRKTFPNYFDVLSTFVKN
Consider B1, for which, under setting [1], the “%++&+++ (percentage of plant having medium and high glyphosate resistance to the total number of plants observed)” value amounted to 52.8%; the “number of plants denoted by + (low glyphosate resistance)” value (“number … (low glyphosate resistance)” below) was 13; the “number of plants denoted by ++ (medium glyphosate resistance)” value (“number … (medium glyphosate resistance)” below) was found to be 15; the “number of plants denoted by +++ (high glyphosate resistance)” value (“number of plants denoted by +++” below) is 13. The “number of plants denoted by − (no glyphosate resistance)” value (shortened to “number … (no glyphosate resistance)”) under setting [1] is recorded as 12. For the same molecule, the “glyphosate resistance / survival of the rice transformed by the EPSPS, in words” value (“glyphosate resistance / survival” for short) (1× glyphosate dosage) is “had relatively high resistance to glyphosate”. Under setting [2], the “%++&+++ (percentage of plant having medium and high glyphosate resistance to the total number of plants observed)” value came out at 7.5%; the “number … (low glyphosate resistance)” value is given as 26; the “number … (medium glyphosate resistance)” value is 3; the “number of plants denoted by +++” value is recorded as 1. Further, under setting [2], the “number … (no glyphosate resistance)” value was 23. Under setting [3], the “&++&+++ (percentage of plant having medium and high glyphosate resistance to the total number of plants observed)” value turned out to be 0.0%; the “number … (low glyphosate resistance)” value is 21; the “number … (medium glyphosate resistance)” value amounted to 0; the “number of plants denoted by +++” value came out at 0. Besides, the “number … (no glyphosate resistance)” value under setting [3] stood at 32. The “glyphosate resistance / survival” value (5× glyphosate dosage) was “none of the rice seedlings containing the wheat EPSPS mutant T2 achieved the level of medium glyphosate resistance”. In addition, under setting [4], the “&++&+++ (percentage of plant having medium and high glyphosate resistance to the total number of plants observed)” value was found to be 0.0%; the “number … (low glyphosate resistance)” value was 11; the “number … (medium glyphosate resistance)” value came out at 0; the “number of plants denoted by +++” value was 0. The “number … (no glyphosate resistance)” value under setting [4] is 42. Moreover, the “glyphosate resistance / survival” value (20× glyphosate dosage) is recorded as “none of the rice seedlings containing the wheat EPSPS mutant T2 achieved the level of medium glyphosate resistance”.

B2: T4: wheat EPSPS mutant, SEQ ID NO: 22, mutation L216(195)P (protein)
chain: MATSVAAPAAPAGAEEVVLQPIREISGAVQLPGSKSLSNRILLLSALSEGTTVVDNLLNSEDVHYMLEALEALGLSVEADKVAKRAVVVGCGGRFPVEKDAKEEVKLFLGNAGTAMRPLTAAVVAAGGNATYVLDGVPRMRERPIGDLVVGLQQLGADVDCFLGTNCPPVRINGKGGLPGGKVKLSGSISSQYLSSLLMAAPLALEDVEIEIIDKPISVPYVEMTLKLMEHFGVTAEHSDSWDRFYIKGGQKYKSPGNAYVEGDASSASYFLAGAAITGGTVTVEGCGTTSLQGDVKFAEVLEMMGAKVTWTDTSVTVTGPPRQPFGRKHLKAVDVNMNKMPDVAMTLAVVALFADGPTAIRDVASWRVKETERMVAIRTELTKLGATVEEGPDYCIITPPEKLNITAIDTYDDHRMAMAFSLAACAEVPVTIRDPGCTRKTFPNYFDVLSTFVKN
On to B2, for which, under setting [1], the “%++&+++ (percentage of plant having medium and high glyphosate resistance to the total number of plants observed)” value is recorded as 35.6%; the “number … (low glyphosate resistance)” value was 30; the “number … (medium glyphosate resistance)” value came out at 18; the “number of plants denoted by +++” value worked out at 8. For the same molecule, the “number … (no glyphosate resistance)” value under setting [1] is listed as 7. Besides, the “glyphosate resistance / survival” value (1× glyphosate dosage) is reported as “obviously superior to that of the rice seedlings transformed by T0”. Further, under setting [2], the “%++&+++ (percentage of plant having medium and high glyphosate resistance to the total number of plants observed)” value was found to be 18.2%; the “number … (low glyphosate resistance)” value is given as 40; the “number … (medium glyphosate resistance)” value amounted to 0; the “number of plants denoted by +++” value turned out to be 4. In addition, under setting [2], the “number … (no glyphosate resistance)” value is listed as 34. The “glyphosate resistance / survival” value (2× glyphosate dosage) is “some of the transgenic rice seedlings transformed by T4, T1 and T5 still survived”. Under setting [3], the “&++&+++ (percentage of plant having medium and high glyphosate resistance to the total number of plants observed)” value was 0.0%; the “number … (low glyphosate resistance)” value is reported as 12; the “number … (medium glyphosate resistance)” value is 0; the “number of plants denoted by +++” value turned out to be 0. Further, the “number … (no glyphosate resistance)” value under setting [3] came to 66. The “glyphosate resistance / survival” value (5× glyphosate dosage) was “some of the transgenic rice seedlings transformed by T4, T1 and T5 still survived”. Moreover, under setting [4], the “&++&+++ (percentage of plant having medium and high glyphosate resistance to the total number of plants observed)” value is 0.0%; the “number … (low glyphosate resistance)” value is listed as 0; the “number … (medium glyphosate resistance)” value worked out at 0; the “number of plants denoted by +++” value is 0. Besides, the “number … (no glyphosate resistance)” value under setting [4] is on record as 78.

B3: T3: wheat EPSPS mutant, SEQ ID NO: 20, mutations S269(247)G and P118(101)S (protein)
chain: MATSVAAPAAPAGAEEVVLQPIREISGAVQLPGSKSLSNRILLLSALSEGTTVVDNLLNSEDVHYMLEALEALGLSVEADKVAKRAVVVGCGGRFPVEKDAKEEVKLFLGNAGTAMRSLTAAVVAAGGNATYVLDGVPRMRERPIGDLVVGLQQLGADVDCFLGTNCPPVRINGKGGLPGGKVKLSGSISSQYLSSLLMAAPLALEDVEIEIIDKLISVPYVEMTLKLMEHFGVTAEHSDSWDRFYIKGGQKYKSPGNAYVEGDASSAGYFLAGAAITGGTVTVEGCGTTSLQGDVKFAEVLEMMGAKVTWTDTSVTVTGPPRQPFGRKHLKAVDVNMNKMPDVAMTLAVVALFADGPTAIRDVASWRVKETERMVAIRTELTKLGATVEEGPDYCIITPPEKLNITAIDTYDDHRMAMAFSLAACAEVPVTIRDPGCTRKTFPNYFDVLSTFVKN
For the molecule B3, under setting [1], the “%++&+++ (percentage of plant having medium and high glyphosate resistance to the total number of plants observed)” value turned out to be 71.0%; the “number … (low glyphosate resistance)” value was determined as 27; the “number … (medium glyphosate resistance)” value was 33; the “number of plants denoted by +++” value is 77. For the same molecule, under setting [1], the “number … (no glyphosate resistance)” value was 18. The “glyphosate resistance / survival” value (1× glyphosate dosage) was “had relatively high resistance to glyphosate”. Also, under setting [2], the “%++&+++ (percentage of plant having medium and high glyphosate resistance to the total number of plants observed)” value was 51.0%; the “number … (low glyphosate resistance)” value is reported as 47; the “number … (medium glyphosate resistance)” value is on record as 46; the “number of plants denoted by +++” value was 33. The “number … (no glyphosate resistance)” value under setting [2] worked out at 29. Under setting [3], the “&++&+++ (percentage of plant having medium and high glyphosate resistance to the total number of plants observed)” value is listed as 25.8%; the “number … (low glyphosate resistance)” value is reported as 75; the “number … (medium glyphosate resistance)” value is 38; the “number of plants denoted by +++” value is recorded as 2. Further, under setting [3], the “number … (no glyphosate resistance)” value stood at 40. Moreover, under setting [4], the “&++&+++ (percentage of plant having medium and high glyphosate resistance to the total number of plants observed)” value turned out to be 3.2%; the “number … (low glyphosate resistance)” value is 57; the “number … (medium glyphosate resistance)” value is recorded as 5; the “number of plants denoted by +++” value is given as 0. Besides, the “number … (no glyphosate resistance)” value under setting [4] is 93.
